Patent US20190233512A1 (SUTRO BIOPHARMA, published 2019)
Changes are numbered by the printed parent chain.

B1: SRP1848-A02 (antibody, V domains shown)
VH: EVQLVESGGGLVQPGGSLRLSCAASGFNISGFRIHWVRQAPGKGLEWVAGIYPESGATYYADSVKGRFTISADTSKNTAYLQMNSLRAEDTAVYYCARHLYVWDWVLDHVLDYWGQGTLVTVSS
VL: not shown
notes: VH/VL only; Fc-bearing IgG format with trastuzumab LC, HIS/FLAG-tagged, cell-free expressed; constant regions not tied; also called Antibody 2
B2: SRP1848-E07 (antibody, V domains shown)
VH: EVQLVESGGGLVQPGGSLRLSCAASGFNIRKSSIHWVRQAPGKGLEWVGEIFPYDGSTDYADNVKGRFTISADTSKNTAYLQMNSLRAEDTAVYYCARGAWSWRSGYGYYIDYWGQGTLVTVSS
VL: not shown
notes: VH/VL only; Fc-bearing IgG format with trastuzumab LC, HIS/FLAG-tagged, cell-free expressed; constant regions not tied; also called Antibody 36
B3: SRP1848-H01 (antibody, V domains shown)
VH: EVQLVESGGGLVQPGGSLRLSCAASGFNIRTQSIHWVRQAPGKGLEWIGDIFPIDGITDYADSVKGRFTISADTSKNTAYLQMNSLRAEDTAVYYCARGSWSWPSGMDYYLDYWGQGTLVTVSS
VL: not shown
notes: VH/VL only; Fc-bearing IgG format with trastuzumab LC, HIS/FLAG-tagged, cell-free expressed; constant regions not tied; also called Antibody 55
B4: SRP1848-F01 (antibody, V domains shown)
VH: B3 VH with Q32Y, I48V, D50S, I54N, I57T, S102A, P104R, S105A, M107Y, D108S
VL: not shown
notes: VH/VL only; Fc-bearing IgG format with trastuzumab LC, HIS/FLAG-tagged, cell-free expressed; constant regions not tied; also called Antibody 37
B5: SRP1848-F07 (antibody, V domains shown)
VH: EVQLVESGGGLVQPGGSLRLSCAASGFNISNHSIHWVRQAPGKGLEWVGEIYPNDGITDYADSVKGRFTISADTSKNTAYLQMNSLSAEDTAVYYCARGSWDWRSGYSYYLDYWGQGTLVTVSS
VL: not shown
notes: VH/VL only; Fc-bearing IgG format with trastuzumab LC, HIS/FLAG-tagged, cell-free expressed; constant regions not tied; also called Antibody 42
B6: SRP1848-G03 (antibody, V domains shown)
VH: EVQLVESGGGLVQPGGSLRLSCAASGFNISTYYIHWVRQAPGKGLEWVGGITPSDGFTDYADSVKGRSTISADTSKNTAYLQMNSLRAEDTAVYYCARGSWSWPSGHGYFLDYWGQGTLVTVSS
VL: not shown
notes: VH/VL only; Fc-bearing IgG format with trastuzumab LC, HIS/FLAG-tagged, cell-free expressed; constant regions not tied; also called Antibody 48
B7: SRP1848-F02 (antibody, V domains shown)
VH: B3 VH with Q32Y, I48V, D50S, I54N, I57T, F68L, P104Q, S105A, M107Y, D108G
VL: not shown
notes: VH/VL only; Fc-bearing IgG format with trastuzumab LC, HIS/FLAG-tagged, cell-free expressed; constant regions not tied; also called Antibody 38
B8: SRP1848-G01 (antibody, V domains shown)
VH: B5 VH with N31R, E50W, Y52A, I57S, S87R, D102A, Y110F
VL: not shown
notes: VH/VL only; Fc-bearing IgG format with trastuzumab LC, HIS/FLAG-tagged, cell-free expressed; constant regions not tied; also called Antibody 47
B9: SRP1848-F10 (antibody, V domains shown)
VH: B5 VH with H32N, E50S, Y52F, I57Y, S87R, D102F, S108G
VL: not shown
notes: VH/VL only; Fc-bearing IgG format with trastuzumab LC, HIS/FLAG-tagged, cell-free expressed; constant regions not tied; also called Antibody 45
B10: SRP1848-F05 (antibody, V domains shown)
VH: B5 VH with N31K, H32S, I57S, S87R, D102A, Y110F
VL: not shown
notes: VH/VL only; Fc-bearing IgG format with trastuzumab LC, HIS/FLAG-tagged, cell-free expressed; constant regions not tied; also called Antibody 40
B11: SRP1848-F11 (antibody, V domains shown)
VH: EVQLVESGGGLVQPGGSLRLSCAASGFNISNNYIHWVRQAPGKGLEWVGGITPIDGNTDYADSVKGRFTISADTSMNTAYLQMNSLRAEDTAVYYCARGSWYWRAGYGYYLDYWGQGALVTVSS
VL: not shown
notes: VH/VL only; Fc-bearing IgG format with trastuzumab LC, HIS/FLAG-tagged, cell-free expressed; constant regions not tied; also called Antibody 46
B12: SRP1848-F09 (antibody, V domains shown)
VH: B2 VH with R30S, K31N, S32H, S33Y, E50G, F52S, Y54L, S57Y, N63S
VL: not shown
notes: VH/VL only; Fc-bearing IgG format with trastuzumab LC, HIS/FLAG-tagged, cell-free expressed; constant regions not tied; also called Antibody 44
B13: SRP1848-E03 (antibody, V domains shown)
VH: B6 VH with V12A, S30G, T31N, S54R, S68F, M83V, S105A, G108S, F110Y
VL: not shown
notes: VH/VL only; Fc-bearing IgG format with trastuzumab LC, HIS/FLAG-tagged, cell-free expressed; constant regions not tied; also called Antibody 33

Target: T1, Human folate receptor alpha (hFOLR1) (human, UniProt P15328 25-234)
T1 construct: Stably expressed on CHO cells (CHO-hFOLR1) for flow cytometry; endogenous on FOLR1-positive KB and Igrov1 cells in the killing assay; also called human FOLR1; FolRα
Test: FACS, CHO-hFOLR1 cells
Procedure: CHO cells were transfected to stably express human (CHO-hFOLR1), cynomolgus (CHO-cFOLR1), or mouse (CHO-mFOLR1) target molecule FOLR1 on the cell surface. Parental CHO cells were used as a negative control to determine background binding levels. Parental CHO and stably transfected CHO-hFOLR1, CHO-cFOLR1, and CHO-mFOLR1 cells were cultured in Ham's F-12: high glucose DMEM (50:50) (Corning, Cellgro-Mediatech) supplemented with 10% heat-inactivated fetal bovine serum (Corning, Cellgro-Mediatech), 1% Penicillin/Streptomycin (Corning, Cellgro-Mediatech) and 2 mmol/L-glutamax (Life Technology).
A mixture of fluoresecent-labeled parental CHO cells and unlabeled CHO-hFOLRlcells were prepared as follows. Parental CHO cells were washed twice in PBS and incubated in PBS containing with 1 nM CellTrace™ Oregon Green488® (Life Technologies) at 37° C. for 30 minutes. Labeled parental CHO cells were then washed 2× with Ham's F-12 media and 2× with FACS buffer (PBS with 1% bovine serum albumin). Unlabeled CHO-hFOLR1 cells were similarly washed and prepared. Labeled parental CHO and unlabeled CHO-hFOLR1 cells were combined at 1:1 ratio and seeded at 50 μL per well (200,000 cells per well) in 96 well polypropylene plates. Cells were mixed with 50 μL of test antibodies (i.e., anti-FOLR1 variants) serially diluted in FACS buffer and incubated on ice for 60 mins. Cells were washed with FACS buffer and incubated on ice for 60 mins with 100 μL FACS buffer containing 2.5 μg/mL R-Phycoerythrin-conjugated goat anti-Human IgG (Jackson ImmunoResearch Laboratories, West Grove, Pa.). Cells were washed twice with FACS buffer, fixed in 2% paraformaldehyde in PBS (Santa Cruz Biotechnology; Dallas, Tex.) for 10 mins on ice in the dark, and analyzed using the BD LSR II Flow Cytometer (BD Biosciences; San Jose, Calif.). Data were analyzed using FlowJo® software (FlowJo, LLC; Ashland, Oreg.) to determine mean fluorescence intensities. Binding constants were calculated using the statistical software, GraphPad Prism (GraphPad Software; La Jolla, Calif.) using the nonlinear regression equation, one site-specific binding with Hill slope. Secondary antibody alone was used as a control, in addition to measuring non-specific antibody binding to CHO parental cells.

T1 sequence (P15328 25-234 limits assumed): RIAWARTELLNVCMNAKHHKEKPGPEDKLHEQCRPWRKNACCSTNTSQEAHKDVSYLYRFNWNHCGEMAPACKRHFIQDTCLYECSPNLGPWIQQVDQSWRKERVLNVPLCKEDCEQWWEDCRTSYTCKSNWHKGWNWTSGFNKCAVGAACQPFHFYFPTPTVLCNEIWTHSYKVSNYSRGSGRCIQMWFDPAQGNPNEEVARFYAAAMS

Binder	Bmax
B1	24700 MFI
B2	27300 MFI
B3	27000 MFI
B4	25200 MFI
B5	27400 MFI
B6	26400 MFI
B7	25700 MFI
B8	27400 MFI
B9	25600 MFI
B10	27200 MFI
B11	26800 MFI
B12	23800 MFI
B13	26700 MFI

Target: T2, Cynomolgus folate receptor alpha (cynomolgus monkey, UniProt P15328 25-234 (human entry))
T2 construct: Stably expressed on CHO cells (CHO-cFOLR1); also called cynomolgus FOLR1; CHO-cFOLR1
Test: FACS, CHO-cFOLR1 cells

T2 sequence (P15328 other isoform, or with tags, fused parts or gaps limits assumed): as the sequence (P15328 25-234 limits assumed) above, with I2T, W4R, R37K, Q117R, A146P, H171Y counted along it

Binder	Bmax
B1	18500 MFI
B2	20400 MFI
B3	17200 MFI
B4	21500 MFI
B5	18700 MFI
B6	19200 MFI
B7	14900 MFI
B8	20900 MFI
B9	20700 MFI
B10	24700 MFI
B11	21800 MFI
B12	24200 MFI
B13	17400 MFI

Target: T3, Murine folate receptor alpha (mouse, UniProt P35846 25-232)
T3 construct: Stably expressed on CHO cells (CHO-mFOLR1); also called mouse FOLR1; CHO-mFOLR1
Test: FACS, CHO-mFOLR1 cells

T3 sequence (P35846 25-232 limits assumed): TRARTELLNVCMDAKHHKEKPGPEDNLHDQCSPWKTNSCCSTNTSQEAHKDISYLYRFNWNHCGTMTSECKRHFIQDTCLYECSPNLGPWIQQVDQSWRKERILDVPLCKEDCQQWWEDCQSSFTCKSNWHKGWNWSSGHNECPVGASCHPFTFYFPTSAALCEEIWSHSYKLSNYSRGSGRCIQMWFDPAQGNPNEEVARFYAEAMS

Binder	Bmax
B1	18600 MFI
B2	11800 MFI
B3	3950 MFI
B4	3750 MFI
B5	1390 MFI
B6	2220 MFI
B7	2740 MFI
B8	1990 MFI
B9	1740 MFI
B10	5100 MFI
B11	1760 MFI
B12	1670 MFI
B13	5940 MFI
